Experimental data: publication PMC10668032, “Altered binding affinity of SIX1-Q177R correlates with enhanced WNT5A and WNT pathway effector expression in Wilms tumor”

Biological target: T1, SIX1-Q177R (human, UniProt Q15475 1-284, Q177R)
T1 sequence: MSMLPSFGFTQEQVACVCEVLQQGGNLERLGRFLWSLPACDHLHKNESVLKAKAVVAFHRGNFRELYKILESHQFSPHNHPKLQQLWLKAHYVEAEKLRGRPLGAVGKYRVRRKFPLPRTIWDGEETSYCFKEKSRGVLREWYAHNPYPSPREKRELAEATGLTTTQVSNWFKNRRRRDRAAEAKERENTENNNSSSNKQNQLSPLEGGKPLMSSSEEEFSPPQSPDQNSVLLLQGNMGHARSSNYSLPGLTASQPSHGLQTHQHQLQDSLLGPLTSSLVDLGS
Assay: EMSA; EMSA: Active Motif Gelshift or Thermo LightShift chemiluminescent kit binding buffer, no glycerol, no poly d(I-C), RT 25 min; protein dilutions 1-300 nM; 6% gel in 0.5x TBE; pH and salt not given
Conditions: protein: recombinant; tags: N-terminal HA from pGEX-6p1-N-HA (GST removed with PreScission); label: biotin 3' end (both strands, Pierce 3' end-labeling kit); blunt

B1: WNT5A_promoter_EMSA (dsDNA)
DNA 1: CCCGCCCTAAGTGTCAAATTTCCTCCAGGGGAG
DNA 2: CTCCCCTGGAGGAAATTTGACACTTAGGGCGGG
binding signal: ~10 fold higher affinity than SIX1 on same probe
